For the assay, the target named is NfRedAm, reductive aminase from Neosartorya fumigata (Neosartorya fumigata). In words: SEC-MALS.

In general, stoichiometry N refers to a count of units in the complex or per binding partner. For the substance “NfRedAm, reductive aminase from Neosartorya fumigata (enzyme)”, the stoichiometry N was found to be 2.

The record behind these values is publication PMC8159254.
